From PMC8614764, “Sulfane Sulfur Is a Strong Inducer of the Multiple Antibiotic Resistance Regulator MarR in Escherichia coli” (Antioxidants, 2021)

Assays:
[1] = molecular target: T1, MarR (Escherichia coli MG1655) (UniProt P27245); experiment: EMSA; conditions: EMSA: 10 mM Tris, 50 mM KCl, 5% glycerin, pH 8.0, 25 C, 30 min, 20 nM probe, 15 uL; 6% native PAGE
T1 sequence: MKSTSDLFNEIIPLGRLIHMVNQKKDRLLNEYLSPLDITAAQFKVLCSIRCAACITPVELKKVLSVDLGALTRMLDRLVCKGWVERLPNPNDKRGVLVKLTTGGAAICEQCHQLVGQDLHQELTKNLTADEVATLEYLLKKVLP

[2] = molecular target: T2, MarR-5XS C47S;C51S;C54S;C108S;C111S (Escherichia coli MG1655) (UniProt P27245); experiment: EMSA; conditions: EMSA: 10 mM Tris, 50 mM KCl, 5% glycerin, pH 8.0, 25 C, 30 min, 20 nM probe, 15 uL; 6% native PAGE
T2 sequence: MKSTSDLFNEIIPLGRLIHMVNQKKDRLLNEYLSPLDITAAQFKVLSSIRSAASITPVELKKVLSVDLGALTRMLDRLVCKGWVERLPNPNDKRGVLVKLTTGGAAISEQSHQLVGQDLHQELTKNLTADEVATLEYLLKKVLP

P27245 = experiment: SEC; Superdex-200, 10 mM Tris-HCl pH 8.0, 100 mM NaCl; MarR-5XS (25 µM) after 400 µM H2Sn for 20 min; dimers to tetramer; mass calibrated with BSA (67 kDa) and T7 RNA polymerase (99 kDa)
[3] = molecular target: the molecule itself; experiment: cross-linking; LC-MS/MS of tryptic peptides of MarR reacted with 10-fold H2Sn, anaerobic, room temperature, 30 min; free thiols blocked with iodoacetamide; disulfide- and trisulfide-linked Cys80 peptides identified
[4] = molecular target: the molecule itself; experiment: SEC; Superdex-200, 10 mM Tris-HCl pH 8.0, 100 mM NaCl; MarR-5XS (25 µM) after 400 µM H2Sn for 20 min; dimers to tetramer; mass calibrated with BSA (67 kDa) and T7 RNA polymerase (99 kDa)
[5] = molecular target: the molecule itself; experiment: SEC; Superdex-200, 10 mM Tris-HCl pH 8.0, 100 mM NaCl; untreated MarR-5XS, 25 µM; monomers to dimer

In the case of “CATCGCATTGAACAAAACTTGAACCGATTTAGCAAAACGTGGCATCGGTCAATTCATTCATTTGACTTATACTTGCCTGGGCAATATTATCCCCTGCAAC (double strand) [marRAB promoter EMSA probe]”, the binding [1] is reported as “binds” and the binding [2] is reported as “binds”.

B1: H2Sn-treated MarR-5XS (protein)
chain: MKSTSDLFNEIIPLGRLIHMVNQKKDRLLNEYLSPLDITAAQFKVLSSIRSAASITPVELKKVLSVDLGALTRMLDRLVCKGWVERLPNPNDKRGVLVKLTTGGAAISEQSHQLVGQDLHQELTKNLTADEVATLEYLLKKVLP
With B1 the “percent of protein as dimer (SEC peak area)” value (P27245) was “the dimer, tetramer, and multimer represented 37.4%, 54.1%, and 8.5%”, the “percent of protein as multimer (SEC peak area)” value (P27245) was “the dimer, tetramer, and multimer represented 37.4%, 54.1%, and 8.5%” and the “percent of protein as tetramer (SEC peak area)” value (P27245) was “the dimer, tetramer, and multimer represented 37.4%, 54.1%, and 8.5%”.

B2: H2Sn-treated MarR (natural protein)
chain: MKSTSDLFNEIIPLGRLIHMVNQKKDRLLNEYLSPLDITAAQFKVLCSIRCAACITPVELKKVLSVDLGALTRMLDRLVCKGWVERLPNPNDKRGVLVKLTTGGAAICEQCHQLVGQDLHQELTKNLTADEVATLEYLLKKVLP
modifications: Cys80 linked to Cys80 of another chain by a disulfide (Cys80-Cys80) or trisulfide (Cys80-S-Cys80) bond
notes: Multiple antibiotic resistance regulator MarR of E. coli MG1655, gene b1530; primers run from the GTG start codon to the stop codon; treated with polysulfide (H2Sn); SEC was done only with MarR-5XS; The vector pET30a may add further residues between the His tag and MarR (surmised from the primer); also called pET30-MarR product; source: E. coli BL21, purified (Ni-NTA) in an anaerobic chamber, …
B2: binds [3].

B3: H2Sn-treated MarR-5XS (natural protein)
chain: MKSTSDLFNEIIPLGRLIHMVNQKKDRLLNEYLSPLDITAAQFKVLSSIRSAASITPVELKKVLSVDLGALTRMLDRLVCKGWVERLPNPNDKRGVLVKLTTGGAAISEQSHQLVGQDLHQELTKNLTADEVATLEYLLKKVLP
modifications: Cys80 disulfide between chains after H2Sn treatment (disulfide-stabilized tetramer)
notes: Multiple antibiotic resistance regulator MarR of E. coli MG1655, gene b1530; primers run from the GTG start codon to the stop codon; all Cys except Cys80 changed to Ser; treated with polysulfide (H2Sn); The treated sample is a mixture of dimer, tetramer and possibly multimers by SEC; the tetramer is the main species; The disulfide and trisulfide at Cys80 were identified by LC-MS/MS on treated …
For B3, the “stoichiometry N” value [4] was 4.

B4: MarR-5XS (untreated) (natural protein)
chain: MKSTSDLFNEIIPLGRLIHMVNQKKDRLLNEYLSPLDITAAQFKVLSSIRSAASITPVELKKVLSVDLGALTRMLDRLVCKGWVERLPNPNDKRGVLVKLTTGGAAISEQSHQLVGQDLHQELTKNLTADEVATLEYLLKKVLP
notes: Multiple antibiotic resistance regulator MarR of E. coli MG1655, gene b1530; primers run from the GTG start codon to the stop codon; all Cys except Cys80 changed to Ser; Made from pET30a; Primarily a dimer by SEC; also called MarR/5CS; MarR-5CS; source: E. coli BL21(DE3), purified (Ni-NTA, PD-10 desalting) under anaerobic conditions
B4 was tested, and the “stoichiometry N” value [5] was 2.
